Data from US12104181B2, “Compositions and methods for treating viral infections targeting TRIM7” (THE BOARD OF REGENTS OF THE UNIVERSITY OF TEXAS SYSTEM, priority 2021, dated 2024).
“And” between values parts separate entries of the source, which are not always exact repeats. Equal values may be shown once.

B1: RNF112: human RING type E3 ligase expressed from lentiviral vector (protein, UniProt Q9ULX5 1-631, looked up)
RING finger protein 112: MPRPALSVTSFCHRLGKRERKQSFMGNSGNSWSHTPFPKLELGLGPQPMAPRELPTCSICLERLRDPISLDCGHDFCIRCFSTHRLPGCEPPCCPECRKICKQKRGLRSLGEKMKLLPQRPLPPALQETCPVRAEPLLLVRINASGGLILRMGAINRCLKHPLARDTPVCLLAVLGEQHSGKSFLLNHLLQGLPGLESGEGGRPRGGEASLQGCRWGANGLARGIWMWSHPFLLGKEGKKVAVFLVDTGDAMSPELSRETRIKLCALTTMLSSYQILSTSQELKDTDLDYLEMFVHVAEVMGKHYGMVPIQHLDLLVRDSSHPNKAGQGHVGNIFQRLSGRYPKVQELLQGKRARCCLLPAPGRRRMNQGHASPGDTDDDFRHLLGAYVSDVLSAAPQHAKSRCQGYWNEGRAVARGDRRLLTGQQLAQEIKNLSGWMGRTGPGFTSPDEMAAQLHDLRKVEAAKREFEEYVRQQDVATKRIFSALRVLPDTMRNLLSTQKDAILARHGVALLCKGRDQTLEALEAELQATAKAFMDSYTMRFCGHLAAVGGAVGAGLMGLAGGVVGAGMAAAALAAEAGMVAAGAAVGATGAAVVGGGVGAGLAATVGCMEKEEDERLLEGDREPLLQEE
modifications: lentiviral expression
notes: human RING type E3 ligase expressed from lentiviral vector
B2: RCHY1: human RING type E3 ligase expressed from lentiviral vector; listed twice (protein, UniProt Q96PM5 1-261, looked up)
RING finger and CHY zinc …: MAATAREDGASGQERGQRGCEHYDRGCLLKAPCCDKLYTCRLCHDNNEDHQLDRFKVKEVQCINCEKIQHAQQTCEECSTLFGEYYCDICHLFDKDKKQYHCENCGICRIGPKEDFFHCLKCNLCLAMNLQGRHKCIENVSRQNCPICLEDIHTSRVVAHVLPCGHLLHRTCYEEMLKEGYRCPLCMHSALDMTRYWRQLDDEVAQTPMPSEYQNMTVDILCNDCNGRSTVQFHILGMKCKICESYNTAQAGGRRISLDQQ
B3: RNF103: human RING type E3 ligase expressed from lentiviral vector (protein, UniProt O00237 1-685, looked up)
E3 ubiquitin-protein ligase …: MWLKLFFLLLYFLVLFVLARFFEAIVWYETGIFATQLVDPVALSFKKLKTILECRGLGYSGLPEKKDVRELVEKSGDLMEGELYSALKEEEASESVSSTNFSGEMHFYELVEDTKDGIWLVQVIANDRSPLVGKIHWEKMVKKVSRFGIRTGTFNCSSDPRYCRRRGWVRSTLIMSVPQTSTSKGKVMLKEYSGRKIEVEHIFKWITAHAASRIKTIYNAEHLKEEWNKSDQYWLKIYLFANLDQPPAFFSALSIKFTGRVEFIFVNVENWDNKSYMTDIGIYNMPSYILRTPEGIYRYGNHTGEFISLQAMDSFLRSLQPEVNDLFVLSLVLVNLMAWMDLFITQGATIKRFVVLISTLGTYNSLLIISWLPVLGFLQLPYLDSFYEYSLKLLRYSNTTTLASWVRADWMFYSSHPALFLSTYLGHGLLIDYFEKKRRRNNNNDEVNANNLEWLSSLWDWYTSYLFHPIASFQNFPVESDWDEDPDLFLERLAFPDLWLHPLIPTDYIKNLPMWRFKCLGVQSEEEMSEGSQDTENDSESENTDTLSSEKEVFEDKQSVLHNSPGTASHCDAEACSCANKYCQTSPCERKGRSYGSYNTNEDMEPDWLTWPADMLHCTECVVCLENFENGCLLMGLPCGHVFHQNCIVMWLAGGRHCCPVCRWPSYKKKQPYAQHQPLSNDVPS
modifications: lentiviral expression
notes: as for B1
B4: RNF182: human RING type E3 ligase expressed from lentiviral vector (protein, UniProt Q8N6D2 1-247, looked up)
E3 ubiquitin-protein ligase …: MASQPPEDTAESQASDELECKICYNRYNLKQRKPKVLECCHRVCAKCLYKIIDFGDSPQGVIVCPFCRFETCLPDDEVSSLPDDNNILVNLTCGGKGKKCLPENPTELLLTPKRLASLVSPSHTSSNCLVITIMEVQRESSPSLSSTPVVEFYRPASFDSVTTVSHNWTVWNCTSLLFQTSIRVLVWLLGLLYFSSLPLGIYLLVSKKVTLGVVFVSLVPSSLVILMVYGFCQCVCHEFLDCMAPPS
B5: RNF135: human RING type E3 ligase expressed from lentiviral vector (protein, UniProt Q8IUD6 1-432, looked up)
E3 ubiquitin-protein ligase …: MAGLGLGSAVPVWLAEDDLGCIICQGLLDWPATLPCGHSFCRHCLEALWGARDARRWACPTCRQGAAQQPHLRKNTLLQDLADKYRRAAREIQAGSDPAHCPCPGSSSLSSAAARPRRRPELQRVAVEKSITEVAQELTELVEHLVDIVRSLQNQRPLSESGPDNELSILGKAFSSGVDLSMASPKLVTSDTAAGKIRDILHDLEEIQEKLQESVTWKEAPEAQMQGELLEAPSSSSCPLPDQSHPALRRASRFAQWAIHPTFNLKSLSCSLEVSKDSRTVTVSHRPQPYRWSCERFSTSQVLCSQALSSGKHYWEVDTRNCSHWAVGVASWEMSRDQVLGRTMDSCCVEWKGTSQLSAWHMVKETVLGSDRPGVVGIWLNLEEGKLAFYSVDNQEKLLYECTISASSPLYPAFWLYGLHPGNYLIIKQVKV
modifications: lentiviral expression
notes: as for B1
B6: RNF151: human RING type E3 ligase expressed from lentiviral vector (protein, UniProt Q2KHN1 1-245, looked up)
RING finger protein 151: MGGGYDLNLFASPPDSNFVCSVCHGVLKRPARLPCSHIFCKKCILRWLARQKTCPCCRKEVKRKKVVHMNKLRKTIGRLEVKCKNADAGCIVTCPLAHRKGHQDSCPFELTACPNEGCTSQVPRGTLAEHRQHCQQGSQQRCPLGCGATLDPAERARHNCYRELHNAWSVRQERRRPLLLSLLRRVRWLDQATSVVRRELAELSNFLEEDTALLEGAPQEEAEAAPEGNVGAEVVGEPRANIPCK
B7: RNF166: human RING type E3 ligase expressed from lentiviral vector (protein, UniProt Q96A37 1-237, looked up)
E3 ubiquitin-protein ligase …: MAMFRSLVASAQQRQPPAGPAGGDSGLEAQYTCPICLEVYHRPVAIGSCGHTFCGECLQPCLQVPSPLCPLCRLPFDPKKVDKATHVEKQLSSYKAPCRGCNKKVTLAKMRVHISSCLKVQEQMANCPKFVPVVPTSQPIPSNIPNRSTFACPYCGARNLDQQELVKHCVESHRSDPNRVVCPICSAMPWGDPSYKSANFLQHLLHRHKFSYDTFVDYSIDEEAAFQAALALSLSEN
modifications: lentiviral expression
notes: as for B1
B8: RNF145: human RING type E3 ligase expressed from lentiviral vector (protein, UniProt Q96MT1 1-663, looked up)
RING finger protein 145: MAAKEKLEAVLNVALRVPSIMLLDVLYRWDVSSFFQQIQRSSLSNNPLFQYKYLALNMHYVGYILSVVLLTLPRQHLVQLYLYFLTALLLYAGHQISRDYVRSELEFAYEGPMYLEPLSMNRFTTALIGQLVVCTLCSCVMKTKQIWLFSAHMLPLLARLCLVPLETIVIINKFAMIFTGLEVLYFLGSNLLVPYNLAKSAYRELVQVVEVYGLLALGMSLWNQLVVPVLFMVFWLVLFALQIYSYFSTRDQPASRERLLFLFLTSIAECCSTPYSLLGLVFTVSFVALGVLTLCKFYLQGYRAFMNDPAMNRGMTEGVTLLILAVQTGLIELQVVHRAFLLSIILFIVVASILQSMLEIADPIVLALGASRDKSLWKHFRAVSLCLFLLVFPAYMAYMICQFFHMDFWLLIIISSSILTSLQVLGTLFIYVLFMVEEFRKEPVENMDDVIYYVNGTYRLLEFLVALCVVAYGVSETIFGEWTVMGSMIIFIHSYYNVWLRAQLGWKSFLLRRDAVNKIKSLPIATKEQLEKHNDICAICYQDMKSAVITPCSHFFHAGCLKKWLYVQETCPLCHCHLKNSSQLPGLGTEPVLQPHAGAEQNVMFQEGTEPPGQEHTPGTRIQEGSRDNNEYIARRPDNQEGAFDPKEYPHSAKDEAHPVESA
B9: MARCH3: human RING type E3 ligase expressed from lentiviral vector (protein, UniProt Q86UD3 1-253, looked up)
E3 ubiquitin-protein ligase …: MTTSRCSHLPEVLPDCTSSAAPVVKTVEDCGSLVNGQPQYVMQVSAKDGQLLSTVVRTLATQSPFNDRPMCRICHEGSSQEDLLSPCECTGTLGTIHRSCLEHWLSSSNTSYCELCHFRFAVERKPRPLVEWLRNPGPQHEKRTLFGDMVCFLFITPLATISGWLCLRGAVDHLHFSSRLEAVGLIALTVALFTIYLFWTLVSFRYHCRLYNEWRRTNQRVILLIPKSVNVPSNQPSLLGLHSVKRNSKETVV
modifications: lentiviral expression
notes: as for B1
B10: RNF180: human RING type E3 ligase expressed from lentiviral vector (protein, UniProt Q86T96 1-592, looked up)
E3 ubiquitin-protein ligase …: MKRSKELITKNHSQEETSILRCWKCRKCIASSGCFMEYLENQVIKDKDDSVDAQNICHVWHMNVEALPEWISCLIQKAQWTVGKLNCPFCGARLGGFNFVSTPKCSCGQLAAVHLSKSRTDYQPTQAGRLMRPSVKYLSHPRVQSGCDKEALLTGGGSENRNHRLLNMARNNNDPGRLTEALCLEVRPTYFEMKNEKLLSKASEPKYQLFVPQLVTGRCATRAFHRKSHSLDLNISEKLTLLPTLYEIHSKTTAYSRLNETQPIDLSGLPLQSSKNSYSFQNPSSFDPSMLLQRFSVAPHETQTQRGGEFQCGLEAASVYSDHTNTNNLTFLMDLPSAGRSMPEASDQEEHLSPLDFLHSANFSLGSINQRLNKRERSKLKNLRRKQRRRERWLQKQGKYSGVGLLDHMTLNNEMSTDEDNEYAEEKDSYICAVCLDVYFNPYMCYPCHHIFCEPCLRTLAKDNPSSTPCPLCRTIISRVFFQTELNNATKTFFTKEYLKIKQSFQKSNSAKWPLPSCRKAFHLFGGFRRHAAPVTRRQFPHGAHRMDYLHFEDDSRGWWFDMDMVIIYIYSVNWVIGFIVFCFLCYFFFPF
modifications: lentiviral expression
notes: as for B1
B11: RNF152: human RING type E3 ligase expressed from lentiviral vector (protein, UniProt Q8N8N0 1-203, looked up)
E3 ubiquitin-protein ligase …: METLSQDSLLECQICFNYYSPRRRPKLLDCKHTCCSVCLQQMRTSQKDVRCPWCRGVTKLPPGFSVSQLPDDPEVLAVIAIPHTSEHTPVFIKLPSNGCYMLPLPISKERALLPGDMGCRLLPGSQQKSVTVVTIPAEQQPLQGGAPQEAVEEEQDRRGVVKSSTWSGVCTVILVACVLVFLLGIVLHNMSCISKRFTVISCG
modifications: lentiviral expression
notes: as for B1

Test system: coxsackievirus B3 (CVB3-GFP)
Type: cell-based
Conditions: HeLa cells, replicate R1; for Percent Infected R1: GFP-positive cells within RFP-positive gate

Molecule	Percent Infected R1	Z score R1
B1	86.6%	−0.03
B2	97.6% and 91.2%	0.11 and 0.03
B3	96.9%	0.11
B4	97.9%	0.12
B5	86.2%	−0.03
B6	92.8%	0.05
B7	94.5%	0.08
B8	94.2%	0.07
B9	91.4%	0.04
B10	93.2%	0.06
B11	97.4%	0.11
